According to US20260317448 (published 2026):

T1: placental alkaline phosphatase (human, UniProt P05187)
T1 chain: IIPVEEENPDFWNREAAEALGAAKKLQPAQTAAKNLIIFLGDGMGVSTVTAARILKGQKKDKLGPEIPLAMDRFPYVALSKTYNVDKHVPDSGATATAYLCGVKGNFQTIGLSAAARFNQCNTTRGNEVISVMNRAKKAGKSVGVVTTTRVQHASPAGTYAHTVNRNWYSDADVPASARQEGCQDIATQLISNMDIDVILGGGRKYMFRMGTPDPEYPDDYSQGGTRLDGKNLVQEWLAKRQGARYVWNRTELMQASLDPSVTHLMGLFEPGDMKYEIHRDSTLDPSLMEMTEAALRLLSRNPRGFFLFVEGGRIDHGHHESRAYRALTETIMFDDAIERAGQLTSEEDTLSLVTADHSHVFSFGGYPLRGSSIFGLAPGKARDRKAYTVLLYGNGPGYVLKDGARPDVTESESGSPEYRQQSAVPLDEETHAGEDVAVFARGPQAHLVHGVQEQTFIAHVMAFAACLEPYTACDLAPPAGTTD

T2: 2-hsALPI peptide (human, intestinal alkaline phosphatase aa234-250)
T2 chain: PEYPADASQNGIRLDGK

T3: germ cell alkaline phosphatase (human, UniProt P10696)
T3 chain: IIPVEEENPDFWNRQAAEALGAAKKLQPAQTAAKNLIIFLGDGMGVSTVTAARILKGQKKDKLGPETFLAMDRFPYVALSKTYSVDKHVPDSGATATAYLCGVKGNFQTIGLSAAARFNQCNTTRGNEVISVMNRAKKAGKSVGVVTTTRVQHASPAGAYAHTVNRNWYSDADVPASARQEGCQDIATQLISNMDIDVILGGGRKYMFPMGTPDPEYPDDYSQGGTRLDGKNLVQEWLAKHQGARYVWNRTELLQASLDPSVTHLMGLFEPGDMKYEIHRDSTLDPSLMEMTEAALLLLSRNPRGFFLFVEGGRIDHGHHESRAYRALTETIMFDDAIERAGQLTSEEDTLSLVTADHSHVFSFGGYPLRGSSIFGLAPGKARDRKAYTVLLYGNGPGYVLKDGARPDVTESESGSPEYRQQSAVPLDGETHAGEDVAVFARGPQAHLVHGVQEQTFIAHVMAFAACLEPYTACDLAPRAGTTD

T4: tissue-nonspecific alkaline phosphatase (human, UniProt P05186)
T4 chain: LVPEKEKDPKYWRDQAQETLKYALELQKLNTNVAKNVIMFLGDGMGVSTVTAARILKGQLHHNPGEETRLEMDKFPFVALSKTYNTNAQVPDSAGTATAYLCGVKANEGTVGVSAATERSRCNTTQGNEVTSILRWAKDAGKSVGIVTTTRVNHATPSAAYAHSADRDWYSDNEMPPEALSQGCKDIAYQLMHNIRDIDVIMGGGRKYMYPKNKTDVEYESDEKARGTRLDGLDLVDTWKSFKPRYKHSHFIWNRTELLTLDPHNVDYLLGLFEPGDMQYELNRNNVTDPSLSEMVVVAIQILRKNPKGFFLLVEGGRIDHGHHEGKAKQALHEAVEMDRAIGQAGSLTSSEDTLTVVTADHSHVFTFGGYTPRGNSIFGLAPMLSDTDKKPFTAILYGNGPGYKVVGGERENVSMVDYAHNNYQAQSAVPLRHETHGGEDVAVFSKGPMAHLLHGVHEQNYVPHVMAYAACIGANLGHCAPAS

T5: 6-hsALPI peptide (human, intestinal alkaline phosphatase aa416-438)
T5 chain: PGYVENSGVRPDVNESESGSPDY


Columns and labels:
[1] = target: T1, placental alkaline phosphatase; test: other, western blot
[2] = target: T2, 2-hsALPI peptide; test: ELISA
[3] = target: T3, germ cell alkaline phosphatase; test: other, western blot
[4] = target: T4, tissue-nonspecific alkaline phosphatase; test: other, western blot
[5] = target: T5, 6-hsALPI peptide; test: ELISA

binding result [1]	Kd [2]	binding result [3]	binding result [4]	Kd [5]	Binder
no binding	0.00711 nM	no binding	no binding	–	CDI005E8 (antibody, V domains shown) VH: CQSLEESGGGLVQPGASLTLTCTASGFSFTNNYWIYWVRQAPGKGLEWIGSVIISSSSAYYASWAKGRFTITKPSSTTVTLQVTSLTAADTATYFCVTGGILWGPGTLVTVSS VL: MDTRAPTQLLGLLLLWLPGARCDVVMTQTPASVEAAVGGTVTIKCQASQSIGTALAWYQQKPGQPPKRLIYKASTLTSGVPSRFKGSGSGTDFTLTISDLECADAATYYCQCTVDDSSSGSSYGNAFGGGTEVVVRG
–	0.021 nM	–	–	0.2 nM	CDI022E3 (antibody, V domains shown) VH: CQSLEESGGRLVTPGTPLTLTCTVSGIDLSTYAMGWVRQAPGEGLEWIGTIGVSGSTYYASWAKGRFTISKTSTTVDLKMTSPATEDTATYFCARGSVWGPGTLVTVSL VL: AQVLTQTPASVEAAVGGTVTIKCQASQSISTWLAWYQQKPGQAPKRLIYSASTLASGVSSRFKGSGSGTEFTLTISDLECADAATYYCRCSYGKSYGEAFGGGTEVVVKG
